Measured values: patent US20240269194A1, “COMPOSITIONS AND METHODS FOR ISLET CELL TRANSPLANTS” (City of Hope, priority 2021, published 2024)

Molecular target: T1, gastrin receptor CCKBR on human islets (human) (UniProt P32239)
T1 sequence (looked up): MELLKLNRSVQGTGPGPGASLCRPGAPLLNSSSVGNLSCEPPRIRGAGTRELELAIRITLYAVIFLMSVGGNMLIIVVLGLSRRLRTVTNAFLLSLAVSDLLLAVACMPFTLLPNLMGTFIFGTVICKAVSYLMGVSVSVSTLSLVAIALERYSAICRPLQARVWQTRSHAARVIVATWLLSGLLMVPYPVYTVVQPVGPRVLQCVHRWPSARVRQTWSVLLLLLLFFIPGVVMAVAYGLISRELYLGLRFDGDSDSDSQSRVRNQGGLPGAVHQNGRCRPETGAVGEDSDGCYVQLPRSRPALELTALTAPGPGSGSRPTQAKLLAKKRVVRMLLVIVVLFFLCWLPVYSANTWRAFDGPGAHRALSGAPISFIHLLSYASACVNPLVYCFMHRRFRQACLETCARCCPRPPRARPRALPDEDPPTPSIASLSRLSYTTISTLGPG
Assay: cell-based or functional assay

- glucagon mRNA (qPCR) in human islets from donors with high HbA1c, 100 nM gastrin: 1.8 fold
- insulin mRNA (qPCR) in human islets from donors with high HbA1c, 100 nM gastrin: > 2 fold
- somatostatin mRNA (qPCR) in human islets from donors with high HbA1c, 100 nM gastrin: 2.5 fold
Substance: gastrin analogue [Leu^15] Gastrin-17 (GAST-17) (peptide)
